In PMC3135484 (Molecular Biology of the Cell, 2011):

B2: GST-tagged Vam7 SNARE domain (190-316) (domain or fragment)
chain: PSTEVTRRAALLRSLLKECDDIGTANIAQDRGRLLGVATSDNSSTTEVQGRTNNDLQQGQMQMVRDQEQELVALHRIIQAQRGLALEMNEELQTQNELLTALEDDVDNTGRRLQIANKKARHFNNSA

Legend:
Experiment in all cases: pull-down
[1] = target: T1, Vps33 (individual HOPS subunit, Sec1/Munc18 protein, TAP-purified) (yeast (S. cerevisiae), UniProt P20795 1-691)
T1 sequence: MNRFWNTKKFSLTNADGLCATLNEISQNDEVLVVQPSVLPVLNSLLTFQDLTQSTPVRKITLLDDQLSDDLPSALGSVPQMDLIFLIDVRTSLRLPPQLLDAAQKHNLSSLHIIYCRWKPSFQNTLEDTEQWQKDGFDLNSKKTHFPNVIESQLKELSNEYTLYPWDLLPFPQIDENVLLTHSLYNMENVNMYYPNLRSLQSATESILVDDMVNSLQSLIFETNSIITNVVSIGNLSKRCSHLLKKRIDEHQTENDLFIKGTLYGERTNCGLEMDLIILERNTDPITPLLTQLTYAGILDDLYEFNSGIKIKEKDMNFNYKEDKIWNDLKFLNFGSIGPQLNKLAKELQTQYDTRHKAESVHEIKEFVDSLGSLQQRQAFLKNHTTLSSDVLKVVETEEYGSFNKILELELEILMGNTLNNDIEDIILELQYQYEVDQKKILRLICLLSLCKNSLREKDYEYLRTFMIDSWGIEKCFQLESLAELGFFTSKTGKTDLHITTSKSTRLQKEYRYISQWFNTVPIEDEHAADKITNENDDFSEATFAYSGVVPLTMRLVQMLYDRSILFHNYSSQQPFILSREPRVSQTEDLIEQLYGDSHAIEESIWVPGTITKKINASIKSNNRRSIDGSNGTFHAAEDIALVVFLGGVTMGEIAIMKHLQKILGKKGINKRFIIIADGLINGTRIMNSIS

[2] = target: T2, Vps18 (individual HOPS subunit, TAP-purified) (yeast (S. cerevisiae), UniProt P27801 1-918)
T2 sequence: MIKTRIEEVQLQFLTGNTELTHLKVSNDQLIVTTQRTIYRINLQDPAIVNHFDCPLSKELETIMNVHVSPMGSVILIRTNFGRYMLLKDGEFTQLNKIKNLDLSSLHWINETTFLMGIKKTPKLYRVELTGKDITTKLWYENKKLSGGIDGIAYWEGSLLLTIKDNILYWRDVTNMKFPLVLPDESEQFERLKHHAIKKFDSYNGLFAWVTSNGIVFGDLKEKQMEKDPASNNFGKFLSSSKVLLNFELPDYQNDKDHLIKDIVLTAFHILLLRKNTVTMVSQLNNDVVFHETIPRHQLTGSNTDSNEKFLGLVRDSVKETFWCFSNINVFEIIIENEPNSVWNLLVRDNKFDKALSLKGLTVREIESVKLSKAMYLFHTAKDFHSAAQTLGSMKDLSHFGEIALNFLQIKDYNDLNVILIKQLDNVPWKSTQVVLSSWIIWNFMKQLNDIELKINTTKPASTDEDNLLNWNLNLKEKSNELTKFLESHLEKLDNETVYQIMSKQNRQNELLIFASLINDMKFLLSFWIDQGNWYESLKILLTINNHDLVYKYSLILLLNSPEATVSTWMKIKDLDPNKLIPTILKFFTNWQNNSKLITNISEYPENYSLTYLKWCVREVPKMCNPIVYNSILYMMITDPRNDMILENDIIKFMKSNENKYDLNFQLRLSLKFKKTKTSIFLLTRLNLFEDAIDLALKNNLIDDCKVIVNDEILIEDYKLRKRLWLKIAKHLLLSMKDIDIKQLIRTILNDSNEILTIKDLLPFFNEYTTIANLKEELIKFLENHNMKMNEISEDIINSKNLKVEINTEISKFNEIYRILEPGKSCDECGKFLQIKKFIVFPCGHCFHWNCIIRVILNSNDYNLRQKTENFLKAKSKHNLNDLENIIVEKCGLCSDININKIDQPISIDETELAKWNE

[3] = target: T3, Vps16 (individual HOPS subunit, TAP-purified) (yeast (S. cerevisiae), UniProt Q03308 1-798)
T3 sequence: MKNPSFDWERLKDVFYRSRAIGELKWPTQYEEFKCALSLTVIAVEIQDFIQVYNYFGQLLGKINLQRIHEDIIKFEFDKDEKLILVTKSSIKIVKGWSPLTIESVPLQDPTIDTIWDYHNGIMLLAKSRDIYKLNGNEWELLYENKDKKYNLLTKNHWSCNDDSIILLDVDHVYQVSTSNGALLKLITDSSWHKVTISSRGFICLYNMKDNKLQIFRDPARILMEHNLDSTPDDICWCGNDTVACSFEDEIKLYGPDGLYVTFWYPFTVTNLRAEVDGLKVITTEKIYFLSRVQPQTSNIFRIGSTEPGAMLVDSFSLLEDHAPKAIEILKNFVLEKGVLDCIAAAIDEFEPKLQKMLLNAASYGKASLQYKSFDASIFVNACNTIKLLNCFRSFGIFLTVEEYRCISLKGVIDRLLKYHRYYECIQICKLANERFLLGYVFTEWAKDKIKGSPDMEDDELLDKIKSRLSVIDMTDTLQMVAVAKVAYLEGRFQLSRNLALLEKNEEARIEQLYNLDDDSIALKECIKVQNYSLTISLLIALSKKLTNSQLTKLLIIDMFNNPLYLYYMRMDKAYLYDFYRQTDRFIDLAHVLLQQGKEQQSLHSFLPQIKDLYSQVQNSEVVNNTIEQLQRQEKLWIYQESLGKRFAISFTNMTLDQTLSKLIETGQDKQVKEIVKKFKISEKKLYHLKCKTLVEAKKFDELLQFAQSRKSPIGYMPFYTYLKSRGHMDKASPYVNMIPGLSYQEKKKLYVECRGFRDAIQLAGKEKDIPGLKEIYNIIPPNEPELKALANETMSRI

[4] = target: HOPS (homotypic fusion and protein sorting) complex (yeast (S. cerevisiae), UniProt P38959;Q07468;P20795;P12868;Q03308;P27801)
[5] = target: T4, His-tagged Ykt6 (1-200) (S. cerevisiae, UniProt P36015 1-200)
T4 sequence: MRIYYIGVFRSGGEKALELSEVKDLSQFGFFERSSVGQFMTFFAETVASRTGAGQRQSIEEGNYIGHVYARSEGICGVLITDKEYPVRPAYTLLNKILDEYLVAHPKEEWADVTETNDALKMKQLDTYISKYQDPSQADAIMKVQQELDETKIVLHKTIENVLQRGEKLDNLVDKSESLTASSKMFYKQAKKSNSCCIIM

[6] = target: T5, His-tagged Vam3 (1-264, ΔTMD) (S. cerevisiae, UniProt Q12241 1-264)
T5 sequence: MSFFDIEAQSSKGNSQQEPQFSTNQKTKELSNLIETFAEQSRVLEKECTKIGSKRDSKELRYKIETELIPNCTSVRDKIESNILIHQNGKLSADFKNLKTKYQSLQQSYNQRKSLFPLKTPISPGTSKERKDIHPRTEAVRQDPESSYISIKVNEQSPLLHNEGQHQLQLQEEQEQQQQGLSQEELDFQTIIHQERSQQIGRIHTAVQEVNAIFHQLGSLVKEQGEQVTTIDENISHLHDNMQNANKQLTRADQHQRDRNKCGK

[7] = target: His-tagged Vti1 (1-189, ΔTMD) (S. cerevisiae, UniProt Q04338 1-189)
[8] = target: B2

Chain of HOPS (homotypic fusion and protein sorting) complex (P38959 whole entry, chain 1 of 3, the tested form may be a part): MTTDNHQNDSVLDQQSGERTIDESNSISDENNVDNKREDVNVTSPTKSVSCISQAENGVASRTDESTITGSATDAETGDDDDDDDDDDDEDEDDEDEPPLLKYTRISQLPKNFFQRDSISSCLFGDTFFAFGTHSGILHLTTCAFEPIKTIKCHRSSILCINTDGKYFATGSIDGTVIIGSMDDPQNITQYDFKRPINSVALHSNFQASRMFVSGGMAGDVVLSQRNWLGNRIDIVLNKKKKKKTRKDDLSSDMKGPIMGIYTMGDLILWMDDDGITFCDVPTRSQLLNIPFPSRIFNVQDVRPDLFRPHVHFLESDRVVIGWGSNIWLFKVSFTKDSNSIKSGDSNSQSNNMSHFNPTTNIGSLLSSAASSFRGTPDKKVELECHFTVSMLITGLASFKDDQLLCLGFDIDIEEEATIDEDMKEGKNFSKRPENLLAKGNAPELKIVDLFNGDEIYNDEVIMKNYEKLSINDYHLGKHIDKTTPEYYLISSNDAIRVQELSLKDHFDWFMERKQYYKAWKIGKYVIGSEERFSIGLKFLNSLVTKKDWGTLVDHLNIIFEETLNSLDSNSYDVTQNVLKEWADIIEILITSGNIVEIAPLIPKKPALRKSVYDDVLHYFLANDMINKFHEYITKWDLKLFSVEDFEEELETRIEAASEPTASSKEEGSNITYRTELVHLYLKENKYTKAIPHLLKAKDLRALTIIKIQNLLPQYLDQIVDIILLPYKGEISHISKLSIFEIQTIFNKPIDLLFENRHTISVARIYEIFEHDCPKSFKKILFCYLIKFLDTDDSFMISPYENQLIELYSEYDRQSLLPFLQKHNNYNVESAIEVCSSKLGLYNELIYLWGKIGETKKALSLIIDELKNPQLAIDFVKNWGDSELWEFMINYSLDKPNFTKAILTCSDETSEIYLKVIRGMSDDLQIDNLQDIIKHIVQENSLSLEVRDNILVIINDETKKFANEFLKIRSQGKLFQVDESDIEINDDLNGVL
Chain of HOPS (homotypic fusion and protein sorting) complex (Q07468 whole entry, chain 2 of 3, the tested form may be a part): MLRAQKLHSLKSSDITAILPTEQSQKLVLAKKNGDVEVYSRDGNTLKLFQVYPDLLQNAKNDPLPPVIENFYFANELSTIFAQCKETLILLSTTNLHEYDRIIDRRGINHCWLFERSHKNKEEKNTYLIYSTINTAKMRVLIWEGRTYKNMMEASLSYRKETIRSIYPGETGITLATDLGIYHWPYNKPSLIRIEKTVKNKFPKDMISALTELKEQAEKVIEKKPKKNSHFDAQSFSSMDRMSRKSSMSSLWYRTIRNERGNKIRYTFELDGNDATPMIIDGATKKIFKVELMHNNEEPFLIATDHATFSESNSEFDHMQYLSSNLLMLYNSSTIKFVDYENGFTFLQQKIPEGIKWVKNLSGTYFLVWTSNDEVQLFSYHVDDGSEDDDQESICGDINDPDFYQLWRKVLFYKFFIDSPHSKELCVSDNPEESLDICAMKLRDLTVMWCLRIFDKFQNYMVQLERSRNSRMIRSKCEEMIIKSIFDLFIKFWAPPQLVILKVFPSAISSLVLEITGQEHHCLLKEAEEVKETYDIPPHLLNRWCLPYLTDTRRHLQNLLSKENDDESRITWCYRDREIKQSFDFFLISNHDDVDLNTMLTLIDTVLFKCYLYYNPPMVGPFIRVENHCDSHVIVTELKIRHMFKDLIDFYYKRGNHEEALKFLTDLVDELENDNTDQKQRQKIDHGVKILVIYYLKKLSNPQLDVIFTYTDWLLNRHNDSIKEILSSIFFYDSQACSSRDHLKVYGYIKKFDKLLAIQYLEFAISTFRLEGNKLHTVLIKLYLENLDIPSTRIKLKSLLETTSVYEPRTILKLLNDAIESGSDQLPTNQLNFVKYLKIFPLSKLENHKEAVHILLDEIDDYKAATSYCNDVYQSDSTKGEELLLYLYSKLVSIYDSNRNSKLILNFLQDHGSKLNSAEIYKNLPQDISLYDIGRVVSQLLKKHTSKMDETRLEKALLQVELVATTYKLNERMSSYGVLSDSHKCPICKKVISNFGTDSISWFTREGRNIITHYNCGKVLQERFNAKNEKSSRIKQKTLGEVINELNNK
Chain of HOPS (homotypic fusion and protein sorting) complex (P12868 whole entry, chain 4 of 3, the tested form may be a part): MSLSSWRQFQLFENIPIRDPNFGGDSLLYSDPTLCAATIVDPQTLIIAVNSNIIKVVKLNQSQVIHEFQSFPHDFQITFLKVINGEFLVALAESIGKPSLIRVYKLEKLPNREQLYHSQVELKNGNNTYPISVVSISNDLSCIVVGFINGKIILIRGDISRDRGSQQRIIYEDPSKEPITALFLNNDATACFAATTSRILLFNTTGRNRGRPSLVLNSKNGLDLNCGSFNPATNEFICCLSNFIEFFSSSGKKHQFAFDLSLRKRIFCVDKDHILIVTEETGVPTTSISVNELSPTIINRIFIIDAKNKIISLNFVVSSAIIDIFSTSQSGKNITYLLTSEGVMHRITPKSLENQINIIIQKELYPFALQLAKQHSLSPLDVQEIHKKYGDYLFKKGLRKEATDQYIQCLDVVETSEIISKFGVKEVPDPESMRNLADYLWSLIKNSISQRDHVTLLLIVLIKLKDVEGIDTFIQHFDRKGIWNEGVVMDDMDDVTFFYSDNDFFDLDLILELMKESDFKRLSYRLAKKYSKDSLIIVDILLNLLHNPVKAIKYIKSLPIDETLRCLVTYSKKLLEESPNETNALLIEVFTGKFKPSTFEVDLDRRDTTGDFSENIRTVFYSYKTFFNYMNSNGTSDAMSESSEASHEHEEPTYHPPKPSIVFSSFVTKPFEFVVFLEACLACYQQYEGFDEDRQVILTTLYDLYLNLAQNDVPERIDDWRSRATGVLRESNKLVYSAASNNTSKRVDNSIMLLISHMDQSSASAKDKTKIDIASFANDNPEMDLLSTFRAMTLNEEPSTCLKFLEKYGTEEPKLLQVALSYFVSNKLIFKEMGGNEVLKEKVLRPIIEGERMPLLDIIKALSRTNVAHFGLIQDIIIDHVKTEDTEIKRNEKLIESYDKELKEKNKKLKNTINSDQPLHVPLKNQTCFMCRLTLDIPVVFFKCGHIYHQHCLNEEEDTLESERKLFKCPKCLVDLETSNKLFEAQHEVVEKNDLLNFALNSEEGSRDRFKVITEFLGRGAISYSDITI

B1: minimal Q-SNARE complex (GST-Vam7 SD, Vam3ΔN and Vti1) (complex)
chain 1: PSTEVTRRAALLRSLLKECDDIGTANIAQDRGRLLGVATSDNSSTTEVQGRTNNDLQQGQMQMVRDQEQELVALHRIIQAQRGLALEMNEELQTQNELLTALEDDVDNTGRRLQIANKKARHFNNSA
chain 2: ESSYISIKVNEQSPLLHNEGQHQLQLQEEQEQQQQGLSQEELDFQTIIHQERSQQIGRIHTAVQEVNAIFHQLGSLVKEQGEQVTTIDENISHLHDNMQNANKQLTRADQHQRDRNKCGK
chain 3: MSSLLISYESDFKTTLEQAKASLAEAPSQPLSQRNTTLKHVEQQQDELFDLLDQMDVEVNNSIGDASERATYKAKLREWKKTIQSDIKRPLQSLVDSGDRDRLFGDLNASNIDDDQRQQLLSNHAILQKSGDRLKDASRIANETEGIGSQIMMDLRSQRETLENARQTLFQADSYVDKSIKTLKTMTRR
B1: binds [1]; binds [2]; binds [3]. B1: binds [4].

B2: binds [5]; binds [6]; binds [7].

B3: His-tagged Vam3ΔN (145-264, lacking the Habc domain and the TMD) (domain or fragment)
chain: ESSYISIKVNEQSPLLHNEGQHQLQLQEEQEQQQQGLSQEELDFQTIIHQERSQQIGRIHTAVQEVNAIFHQLGSLVKEQGEQVTTIDENISHLHDNMQNANKQLTRADQHQRDRNKCGK
B3: binds [8].
